Assay results: patent publication US20240352118A1

Assays:
[1] = biological target: human TIGIT on cells (human) (UniProt Q495A1); assay: flow cytometry, blocking of human CD155-mouse IgG2a Fc (2 ug/mL) binding to CHO-huTIGIT cells
[2] = biological target: human TIGIT on cells (human) (UniProt Q495A1); assay: flow cytometry on CHO-huTIGIT cells
[3] = biological target: human TIGIT-his protein (human) (UniProt Q495A1); assay: BLI (ForteBio), IgG on AHQ sensor, 100 nM TIGIT-his, monovalent, 1:1 model
human TIGIT-his protein (human), sequence (Q495A1 22-141): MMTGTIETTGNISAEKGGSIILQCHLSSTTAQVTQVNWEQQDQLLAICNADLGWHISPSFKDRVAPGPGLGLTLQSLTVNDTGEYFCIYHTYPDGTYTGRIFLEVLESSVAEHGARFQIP

[4] = biological target: cynomolgus TIGIT-his protein (cynomolgus monkey); assay: as above
cynomolgus TIGIT-his protein (cynomolgus monkey), sequence (chain, as listed by the source): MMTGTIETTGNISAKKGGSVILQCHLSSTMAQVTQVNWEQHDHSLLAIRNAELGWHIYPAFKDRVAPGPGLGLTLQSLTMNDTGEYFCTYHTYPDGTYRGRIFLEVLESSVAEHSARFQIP

[5] = biological target: cynomolgus TIGIT on cells (cynomolgus monkey); assay: flow cytometry on CHO-cynoTIGIT cells
cynomolgus TIGIT on cells (cynomolgus monkey), sequence (chain, as listed by the source): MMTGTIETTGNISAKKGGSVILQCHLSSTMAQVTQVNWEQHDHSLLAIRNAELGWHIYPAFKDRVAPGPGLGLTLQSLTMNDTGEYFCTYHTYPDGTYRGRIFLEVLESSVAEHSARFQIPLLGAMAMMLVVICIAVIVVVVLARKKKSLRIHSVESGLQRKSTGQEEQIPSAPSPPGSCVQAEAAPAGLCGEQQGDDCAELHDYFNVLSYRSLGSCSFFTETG

[6] = biological target: human TIGIT on cells (human) (UniProt Q495A1); assay: flow cytometry on activated human primary T cells (CD3/CD28 beads + IL-2, 48 h), fluorescent secondary antibody; y axis Positive cells(%), x axis Concentration(nM); EC50 from the table drawn under the curves

human TIGIT on cells (human), sequence (Q495A1 22-244): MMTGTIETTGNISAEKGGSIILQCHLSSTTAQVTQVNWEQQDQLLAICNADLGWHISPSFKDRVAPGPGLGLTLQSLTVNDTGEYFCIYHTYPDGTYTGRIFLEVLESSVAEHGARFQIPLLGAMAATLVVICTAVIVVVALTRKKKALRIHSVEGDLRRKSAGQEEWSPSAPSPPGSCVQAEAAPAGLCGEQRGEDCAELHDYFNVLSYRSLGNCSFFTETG

IC50 [1]: 0.63 nM
EC50 [2]: 1.35 nM
Kd [3]: 0.87 nM
Kd [4]: 3.5 nM
EC50 [5]: 4.18 nM
EC50 [6]: 0.274 nM
Substance: Tiragolumab (antibody)
